Source: US20230181672
Where a chain is given by its changes, count along the chain named. Numbers in names are those of the source.

T1: Cps1 (Mmut-/-;TgMCKMmut)
T1 sequence (Q8C196 39-1500, looked up): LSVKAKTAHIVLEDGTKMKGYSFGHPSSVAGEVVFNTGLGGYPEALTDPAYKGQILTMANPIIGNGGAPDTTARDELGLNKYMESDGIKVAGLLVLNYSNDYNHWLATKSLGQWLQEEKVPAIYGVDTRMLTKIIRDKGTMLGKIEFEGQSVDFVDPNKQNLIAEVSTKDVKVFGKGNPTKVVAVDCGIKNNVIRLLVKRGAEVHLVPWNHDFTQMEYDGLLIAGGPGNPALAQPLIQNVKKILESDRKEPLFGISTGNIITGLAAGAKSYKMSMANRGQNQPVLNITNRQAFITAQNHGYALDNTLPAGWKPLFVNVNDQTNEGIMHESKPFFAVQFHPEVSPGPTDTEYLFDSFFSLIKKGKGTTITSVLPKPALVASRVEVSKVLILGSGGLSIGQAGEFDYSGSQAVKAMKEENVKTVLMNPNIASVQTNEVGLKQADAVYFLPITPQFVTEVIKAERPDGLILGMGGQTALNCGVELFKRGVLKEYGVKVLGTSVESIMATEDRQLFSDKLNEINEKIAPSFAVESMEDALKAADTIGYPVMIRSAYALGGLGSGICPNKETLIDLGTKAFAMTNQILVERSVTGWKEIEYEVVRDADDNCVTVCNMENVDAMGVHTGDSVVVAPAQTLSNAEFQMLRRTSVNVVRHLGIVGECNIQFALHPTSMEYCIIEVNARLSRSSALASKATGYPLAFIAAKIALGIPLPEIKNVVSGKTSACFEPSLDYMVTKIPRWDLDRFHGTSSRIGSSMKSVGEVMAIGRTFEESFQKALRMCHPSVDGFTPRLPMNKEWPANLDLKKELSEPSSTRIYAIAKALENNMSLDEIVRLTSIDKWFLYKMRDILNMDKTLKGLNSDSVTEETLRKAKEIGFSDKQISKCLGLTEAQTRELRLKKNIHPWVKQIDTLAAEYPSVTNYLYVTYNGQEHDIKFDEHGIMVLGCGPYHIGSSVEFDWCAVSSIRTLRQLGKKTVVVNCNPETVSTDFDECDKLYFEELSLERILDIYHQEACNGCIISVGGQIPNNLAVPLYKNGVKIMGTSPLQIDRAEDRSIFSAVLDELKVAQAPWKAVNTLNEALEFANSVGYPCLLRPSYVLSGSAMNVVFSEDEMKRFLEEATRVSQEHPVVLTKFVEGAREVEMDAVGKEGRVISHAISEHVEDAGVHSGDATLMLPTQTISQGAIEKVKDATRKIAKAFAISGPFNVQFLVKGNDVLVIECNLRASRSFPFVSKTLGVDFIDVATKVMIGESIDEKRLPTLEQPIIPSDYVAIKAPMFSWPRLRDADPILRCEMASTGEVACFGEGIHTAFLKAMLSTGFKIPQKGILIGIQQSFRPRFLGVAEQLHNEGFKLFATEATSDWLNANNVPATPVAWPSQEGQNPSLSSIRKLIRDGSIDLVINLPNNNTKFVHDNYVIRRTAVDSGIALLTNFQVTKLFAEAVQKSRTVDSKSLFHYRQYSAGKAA

B1: FLAG-SIRT1 (Addgene, 1791) (protein)
chain: MADEAALALQPGGSPSAAGADREAASSPAGEPLRKRPRRDGPGLERSPGEPGGAAPEREVPAAARGCPGAAAAALWREAEAEAAAAGGEQEAQATAAAGEGDNGPGLQGPSREPPLADNLYDEDDDDEGEEEEEAAAAAIGYRDNLLFGDEIITNGFHSCESDEEDRASHASSSDWTPRPRIGPYTFVQQHLMIGTDPRTILKDLLPETIPPPELDDMTLWQIVINILSEPPKRKKRKDINTIEDAVKLLQECKKIIVLTGAGVSVSCGIPDFRSRDGIYARLAVDFPDLPDPQAMFDIEYFRKDPRPFFKFAKEIYPGQFQPSLCHKFIALSDKEGKLLRNYTQNIDTLEQVAGIQRIIQCHGSFATASCLICKYKVDCEAVRGDIFNQVVPRCPRCPADEPLAIMKPEIVFFGENLPEQFHRAMKYDKDEVDLLIVIGSSLKVRPVALIPSSIPHEVPQILINREPLPHLHFDVELLGDCDVIINELCHRLGGEYAKLCCNPVKLSEITEKPPRTQKELAYLSELPPTPLHVSEDSSSPERTSPPDSSVIVTLLDQAAKSNDDLDVSESKGCMEEKPQEVQTSRNVESIAEQMENPDLKNVGSSTGEKNERTSVAGTVRKCWPNRVAKEQISRRLDGNQYLFLPPNRYIFHGAEVYSDSEDDVLSSSSCGSNSDSGTCQSPSLEEPMEDESEIEEFYNGLEDEPDVPERAGGAGFGTDGDDQEAINEAISVKQEVTDMNYPSNKS
B2: methylmalonylated K4R mutated SIRT5-FLAG (protein)
chain: SSSMADFRKFFAKAKHIVIISGAGVSAESGVPTFRGAGGYWRRWQAQDLATPLAFAHNPSRVWEFYHYRREVMGSREPNAGHRAIAECETRLGKQGRRVVVITQNIDELHRRAGTRNLLEIHGSLFKTRCTSCGVVAENYKSPICPALSGKGAPEPGTQDASIPVEKLPRCEEAGCGGLLRPHVVWFGENLDPAILEEVDRELAHCDLCLVVGTSSVVYPAAMFAPQVAARGVPVAEFNTETTPATNRFRFHFQGPCGTTLPEALACHENETVSEFGGDYKDDDDK
B3: K4R mutated SIRT5-FLAG (protein)
chain: B2 chain
B4: SIRT5-FLAG (Addgene, 13816) (protein)
chain: B2 chain with R43K, R76K, R112K, R116K
B5: propionylated SIRT5-FLAG (protein)
chain: B2 chain with R43K, R76K, R112K, R116K

Columns and labels:
[1] = target: methylmalonylated BSA, P02769
Cps1 (Mmut-/-;TgMCKMmut) = target: T1, Cps1 (Mmut-/-;TgMCKMmut)
[2] = target: propionylated BSA, P02769
propionylated BSA, P02769, sequence (P02769 25-607): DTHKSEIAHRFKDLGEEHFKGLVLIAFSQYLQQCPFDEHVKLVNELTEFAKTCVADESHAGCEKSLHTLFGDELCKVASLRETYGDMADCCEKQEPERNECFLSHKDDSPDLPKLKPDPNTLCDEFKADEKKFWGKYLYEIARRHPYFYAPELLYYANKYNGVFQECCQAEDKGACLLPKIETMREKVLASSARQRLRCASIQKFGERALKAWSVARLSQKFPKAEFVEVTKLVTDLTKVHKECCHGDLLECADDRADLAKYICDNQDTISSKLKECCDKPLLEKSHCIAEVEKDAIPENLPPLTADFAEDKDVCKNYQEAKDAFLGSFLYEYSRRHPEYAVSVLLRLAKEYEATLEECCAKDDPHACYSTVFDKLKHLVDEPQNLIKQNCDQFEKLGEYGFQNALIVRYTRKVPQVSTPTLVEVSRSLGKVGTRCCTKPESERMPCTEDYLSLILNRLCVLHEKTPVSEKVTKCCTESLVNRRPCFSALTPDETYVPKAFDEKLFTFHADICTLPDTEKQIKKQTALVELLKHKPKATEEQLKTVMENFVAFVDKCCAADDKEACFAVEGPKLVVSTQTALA

methylmalonylated BSA, P02769, sequence (P02769 25-607): as above

Protein	removal of methylmalonylation from methylmalonylated BSA (in vitro deacylation assay, Western blot) [1]	stated: methylmalonylation of immunoprecipitated Cps1 reduced (AP42053 immunoblot) (Cps1 (Mmut-/-;TgMCKMmut))	depropionylation of propionylated BSA (in vitro deacylation assay, Western blot) [2]
B1	SIRT1 (FIG. 13A) and SIRT5 (FIG. 13B) were the most effective at removing methylmalonylation from the methylmalonylated BSA substrates		
B2	SIRT5 K4R did not exhibit enzymatic inhibition after hyper-methylmalonylation/acylation modifications		
B3	mutant SIRT5 K4R had the ability to remove methylmalonylation from BSA regardless of whether SIRT5 K4R was acylated or not	AP42053 bands at about 150 kDa are faint in the 2 SuperSIRT5-AAV Mmut-/- lanes and clear in the 2 GFP-AAV Mmut-/- lanes, with like Cps1 bands; the FLAG blot of the extracts shows SuperSIRT5-FLAG below 37 kDa only in the SuperSIRT5-AAV lanes	
B4			SIRT5 mediates the depropionylation of BSA substrate
B5			this activity is impaired when SIRT5 is propionylated
